This series has as its target Pax6 PD/HD (UniProt P63015 4-269). In words: EMSA; not given in the material. The settings on record: protein: recombinant; blunt.

Sequence of Pax6 PD/HD (P63015 4-269): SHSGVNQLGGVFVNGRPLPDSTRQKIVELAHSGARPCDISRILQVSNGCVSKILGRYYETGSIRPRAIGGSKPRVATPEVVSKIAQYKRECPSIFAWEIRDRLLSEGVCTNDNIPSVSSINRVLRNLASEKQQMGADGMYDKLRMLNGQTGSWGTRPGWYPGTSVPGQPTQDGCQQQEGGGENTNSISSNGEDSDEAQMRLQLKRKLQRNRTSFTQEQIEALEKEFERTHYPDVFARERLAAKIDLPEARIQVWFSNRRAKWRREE

B1: Kif1b site 2 (dsDNA)
DNA 1: TAGGAAGCTTTCTGCTGGATACACTCATGCCTGAGCGTG
DNA 2: CACGCTCAGGCATGAGTGTATCCAGCAGAAAGCTTCCTA
In the case of B1, the binding result was “binds”.

B2: Kif1b site 1 (dsDNA)
DNA 1: ATGACCAATAGTAAAGCGTGGCTGGAAGAGGGG
DNA 2: CCCCTCTTCCAGCCACGCTTTACTATTGGTCAT
On to B2, for which the binding result is “binds”.

For the origin of these results see publication PMC3544819, “Pax6 Interactions with Chromatin and Identification of Its Novel Direct Target Genes in Lens and Forebrain”.
